# Reference: publication PMC3052529
# Several values for one entry are separate records, joined by “and”; a condition that tells them apart may be missing. Identical values can stand only once. Like-named read-outs stand apart in the source and are kept apart here.
# Assays:
# [1] = target: Flag-core106 (hepatitis C virus (strain not stated)); assay: AlphaScreen or HTRF
# [2] = target: HCV core106 (first N-terminal 106 residues of HCV core protein) (hepatitis C virus (strain not stated)); assay: cross-linking
# [3] = target: Flag-core106 (hepatitis C virus (strain not stated)); assay: AlphaScreen or HTRF; remark: listed apart in the source
# [4] = target: Flag-core169 (hepatitis C virus H77 genotype 1a); assay: AlphaScreen or HTRF
# [5] = target: HCV core169 (first 169 residues of HCV core protein, domains D1+D2) (hepatitis C virus H77 genotype 1a); assay: cross-linking
Substance,IC50 [1] [nM],stoichiometry N [2],IC50 [3] [nM],IC50 [4] [nM],stoichiometry N [5]
HCV core106 (first N-terminal 106 residues of HCV core protein) (domain or fragment),344,2,220,870,
"HCV core169 (first 169 residues of HCV core protein, domains D1+D2) (domain or fragment)",,,,,2 and 3
